Results as given in paper PMC6947844.

B1: monoclonal antibody 40H3 (antibody, V domains shown)
VH: QVQLKQSGPGLVQPSQSLSITCTVSGFSLTNYGIHWLRQSPGKGLEWLGMMWRGGGTDYNAAFISRLTITKDTSKSQVFFRMNNLQTNDTAIYYCARKGVGMGLGYWGQGTSVTVSS
VL: DIQMTQSPASQSASLGESVTITCLASQTIGTWVAWYQQKPGRSPQLLIYGATNLADGVPSRFSGSGSGTKFSFKISSLQAEDFVSYYCQQLYSNPYTFGGGTKLEIK
B2: monoclonal antibody 11G3 (antibody, V domains shown)
VH: QVQLKQSGPSLVQPSQSLSITCTVSGFSLTNYGVHWVRQSPGKGLEWLGVMWRGGRTDYNAAFMSRLSITKDNSRSQVFFKMNSLQTDDAAIYYCAKNGPFGNFAGYWGQGTLVTVST
VL: DIVMSQSPSSLPVSVGEKVSLTCKSSRSLLDNQKHYLAWYQQKPGQSPKLLIYWASTRESGVPDRFTGSGSGTEFTLTISSVKAEDLAVYYCQQFYNYPYTFGGGTKLEIK
B3: monoclonal antibody 1D9 (antibody, V domains shown)
VH: QVQLKQSGRSLVQPSQSLSITCTVSGFSLTDYGVHWIRQSPGKGLEWLGVIWRSGRTDYNAVFMSRLSITKDNSKSQVFFKMNGLQTDDTAIYYCAKNGPFGNFAGYWGQGTPVAVSA
VL: DIVMSQSPSSLAVSVGEKVTMRCRSSQSLLDSYHQKNYLAWYLQKPGQSPKLLIYWASTRESGVPDRFTGSGSGTDFTLTISSVKAEDLAVYYCQEYYRYPYTFGGGTKLEIK
B4: monoclonal antibody 4A4 (antibody, V domains shown)
VH: QVQLKQSGRSLVQPSQSLSITCTVSGFSLTDYGVHWIRQSPGKGLEWLGVIWRSGRTDYNAVFMSRLSITKDNSKSQVFFKMNGLLIEDTAIYYCAKNGPFGNFAGYWGQGTPVAVSA
VL: DIVMSQSPSSLAVSVGEKVTMRCRSSQSLLDSYHQKNYLAWYLQKPGQSPKLLIYWASTRESGVPDRFTGSGSGTDFTLTISSVKAEDLAAYYCQEYYRYPYTFGGGTKLEIK
B5: monoclonal antibody 11E11 (antibody, V domains shown)
VH: QVQLKQSGPSLVQPSQSLSITCTVSGFSLTNYGVHWIRQSPGKGLEWLGVKWRGGRTDYNAAFMSRLSITRDNSRSQVFFKMNSLQTDDTAIYYCAKNGPFGNFAGYWGQGTLVTVSA
VL: DIVMSQSPSSLAVSVGEKVSLTCKSSQSLLDNQKHYLAWYQQKPGQSPKLLIYWASTRESGVPDRFTGSGSGTEFTLTISSVKAEDLAVYYCQQFYNYPYTFGGGTKLEIK
B6: monoclonal antibody 3D10 (antibody, V domains shown)
VH: QVQLKQSGPGLVQPSQSLSIICTVSGFSLTRNGVHWVRQSPGKGLEWVGVIWRSGRTDYDAAFMSRLSITKDNSKSQVFFKMNSLQADDTAIYYCVKNGDDGNYGTYWGQGTLVTVSA
VL: DIVMSQSPSSLGVSVGEKVTMSCKSSQSLLDSRNQKNYLAWYQQKPGQSPKLLIYWASTRESGVPDRFTGSGSGTEFTLTISSVKAEDLAIYYCQQYYNYPYTFGGGTKLEIT
B7: monoclonal antibody 9G11 (antibody, V domains shown)
VH: QVQLKQSGPGLVQPSQSLSITCTVSGFSLTRNGVHWVRQSPGKGLEWVGVIWRGGRTDYDAAFMSRLSITKDNSKSQVFFKMNSLQADDTAIYYCVKNGDDGNYGTYWGQGTLVTVSA
VL: DIVMSQSPSSLGVSVGEKVTMSCKSSQSLLDSRNQKNYLAWYQQKPGQSPKLLIYWASTRESGVPDRFTGSGSGTEFTLTISSVKAEDLAIYYCQQYYNYPYTFGGGTKLEIT

What follows are binders tested against human wtEGFR on F98_(EGFR) cells (human) (UniProt P00533) (assay: […], FACS buffer).
For B1, the median fluorescence intensity was 187 units.

The binders below were run against wtEGFR at physiological levels on WI-38 cells (human (endogenous in WI-38)) (UniProt P00533) (assay: […], FACS buffer).
B2 showed a median fluorescence intensity of under 100 units. In the case of B3, the median fluorescence intensity is reported as under 100 units. With B4 the median fluorescence intensity was under 100 units. With B5 the median fluorescence intensity was under 100 units. For B6, the median fluorescence intensity was under 100 units. For B7, the median fluorescence intensity was under 100 units. In the case of B1, the median fluorescence intensity is reported as under 100 units.
